Experimental findings from patent publication US20160194355A1 (MARUHA NICHIRO, published 2016) are described below.

Some results are limits rather than exact numbers.

In the experiment the target is dipeptidyl peptidase-IV (DPPIV) (Human, recombinant; manufactured by Biomol) (Human, UniProt P27487 39-766, limits assumed). Put plainly: cell-based or functional assay.
dipeptidyl peptidase-IV (DPPIV) (Human, recombinant; manufactured by Biomol), sequence (P27487 39-766 limits assumed): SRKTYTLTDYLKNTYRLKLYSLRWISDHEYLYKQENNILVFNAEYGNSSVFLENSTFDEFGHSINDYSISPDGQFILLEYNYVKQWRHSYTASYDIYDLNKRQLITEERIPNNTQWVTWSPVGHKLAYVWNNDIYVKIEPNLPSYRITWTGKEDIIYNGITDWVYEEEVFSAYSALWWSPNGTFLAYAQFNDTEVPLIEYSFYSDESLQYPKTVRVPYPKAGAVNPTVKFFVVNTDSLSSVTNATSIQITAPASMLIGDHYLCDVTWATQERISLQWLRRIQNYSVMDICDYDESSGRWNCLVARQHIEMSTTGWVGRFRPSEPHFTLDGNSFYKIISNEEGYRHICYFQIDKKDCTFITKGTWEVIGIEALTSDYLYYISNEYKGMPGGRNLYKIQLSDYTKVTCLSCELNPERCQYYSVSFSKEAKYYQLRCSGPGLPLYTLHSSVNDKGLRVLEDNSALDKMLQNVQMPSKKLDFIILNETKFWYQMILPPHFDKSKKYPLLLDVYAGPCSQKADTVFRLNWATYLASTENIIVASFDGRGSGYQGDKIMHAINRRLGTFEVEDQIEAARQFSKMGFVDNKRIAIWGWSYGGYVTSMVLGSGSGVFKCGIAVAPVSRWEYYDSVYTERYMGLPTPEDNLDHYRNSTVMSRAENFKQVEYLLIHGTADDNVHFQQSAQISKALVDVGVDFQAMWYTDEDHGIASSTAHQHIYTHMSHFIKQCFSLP

For FPVG [Phe-Pro-Val-Gly (FPVG)], the “IC50 Value (µM), DPPIV inhibitory activity (enzyme activity on H-Gly-Pro-AMC substrate, fluorescence)” value came out at 40 µM.
The figure for FP [Phe-Pro (FP)] is greater than 100 µM; for LPF [Leu-Pro-Phe (LPF)] it is 88 µM; for VIP [Val-Ile-Pro (VIP)] it is greater than 100 µM.
The figure for LPL [Leu-Pro-Leu (LPL)] is 82 µM; for LPVL [Leu-Pro-Val-Leu (LPVL)] it is 46 µM; for VPI [Val-Pro-Ile (VPI)] it is 3 µM.
The figure for LP [Leu-Pro (LP)] is greater than 100 µM; for IP [Ile-Pro (IP)] it is 66 µM; for IVP [Ile-Val-Pro (IVP)] it is greater than 100 µM.
Turning to WLP [Trp-Leu-Pro (WLP)], the “IC50 Value (µM), DPPIV inhibitory activity (enzyme activity on H-Gly-Pro-AMC substrate, fluorescence)” value is greater than 100 µM.
As for IIP [Ile-Ile-Pro (IIP)], the “IC50 Value (µM), DPPIV inhibitory activity (enzyme activity on H-Gly-Pro-AMC substrate, fluorescence)” value was greater than 100 µM.
For the molecule IPL [Ile-Pro-Leu (IPL)], the “IC50 Value (µM), DPPIV inhibitory activity (enzyme activity on H-Gly-Pro-AMC substrate, fluorescence)” value worked out at 26 µM.
VPL [Val-Pro-Leu (VPL)]: the “IC50 Value (µM), DPPIV inhibitory activity (enzyme activity on H-Gly-Pro-AMC substrate, fluorescence)” value turned out to be 19 µM.
As for IPI [Ile-Pro-Ile (IPI)], the “IC50 Value (µM), DPPIV inhibitory activity (enzyme activity on H-Gly-Pro-AMC substrate, fluorescence)” value stood at 3 µM.
As to VLP [Val-Leu-Pro (VLP)], the “IC50 Value (µM), DPPIV inhibitory activity (enzyme activity on H-Gly-Pro-AMC substrate, fluorescence)” value was greater than 100 µM.
The figure for WIP [Trp-Ile-Pro (WIP)] is greater than 100 µM.
